Laboratory results: patent EP4497755A1 (Asociación Centro de Investigación Cooperativa en …, dated 2025)

Tests used:
[1] = biological target: VSV-G-tagged full-length LRP6 (UniProt O75581); experiment: immunofluorescence colocalization in transfected cells
[2] = biological target: T1, Wnt-11 peptide LLDLERGTRESA (human); experiment: peptide dot blot
T1 construct: also called Wnt-11 amino acids L101-A112
T1 peptide: LLDLERGTRESA

[3] = biological target: T2, Wnt-11 peptide LLDLERGTRESAC (human); experiment: peptide dot blot (Fig. 6a)
T2 construct: The C-terminal cysteine is not part of Wnt-11; also called wt101
T2 peptide: LLDLERGTRESAC

[4] = biological target: T3, Wnt-11 antibody epitope deletion mutant Wnt-11m (Wnt-11 delta 101-108, untagged) (human, UniProt O96014 25-354); experiment: Ab1 staining and FACS sorting of transfected HEK 293 cells, western blot of Ab1high and Ab1low populations
T3 construct: whole, on cells; also called AE
T3 sequence (looked up): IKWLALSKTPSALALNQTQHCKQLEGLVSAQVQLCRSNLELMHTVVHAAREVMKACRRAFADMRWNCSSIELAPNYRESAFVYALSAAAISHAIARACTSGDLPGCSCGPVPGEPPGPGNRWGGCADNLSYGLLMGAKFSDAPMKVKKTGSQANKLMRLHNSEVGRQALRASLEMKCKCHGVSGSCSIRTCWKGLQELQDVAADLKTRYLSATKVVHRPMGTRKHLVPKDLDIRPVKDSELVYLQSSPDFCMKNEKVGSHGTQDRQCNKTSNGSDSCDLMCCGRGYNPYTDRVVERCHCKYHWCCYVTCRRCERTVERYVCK

[5] = biological target: T4, Wnt-11 alanine replacement peptide P05 LLDLARGTRESA (human); experiment: peptide ELISA, alanine replacement panel
T4 peptide: LLDLARGTRESA

[6] = biological target: T5, Wnt-11 alanine replacement peptide P11 LLDLERGTREAA (human); experiment: peptide ELISA, alanine replacement panel
T5 peptide: LLDLERGTREAA

[7] = biological target: T6, Wnt-11 alanine replacement peptide P04 LLDAERGTRESA (human); experiment: peptide ELISA, alanine replacement panel
T6 peptide: LLDAERGTRESA

[8] = biological target: T7, Wnt-11 alanine replacement peptide P03 LLALERGTRESA (human); experiment: peptide ELISA, alanine replacement panel
T7 peptide: LLALERGTRESA

[9] = biological target: T8, Wnt-11 alanine replacement peptide P10 LLDLERGTRASA (human); experiment: peptide ELISA, alanine replacement panel
T8 peptide: LLDLERGTRASA

[10] = biological target: T9, Wnt-11 alanine replacement peptide P02 LADLERGTRESA (human); experiment: peptide ELISA, alanine replacement panel
T9 peptide: LADLERGTRESA

[11] = biological target: T10, Wnt-11 alanine replacement peptide P09 LLDLERGTAESA (human); experiment: peptide ELISA, alanine replacement panel
T10 peptide: LLDLERGTAESA

[12] = biological target: T11, Wnt-11 alanine replacement peptide P01 ALDLERGTRESA (human); experiment: peptide ELISA, alanine replacement panel
T11 peptide: ALDLERGTRESA

[13] = biological target: T12, Wnt-11 alanine replacement peptide P08 LLDLERGARESA (human); experiment: peptide ELISA, alanine replacement panel
T12 peptide: LLDLERGARESA

[14] = biological target: T13, Wnt-11 alanine replacement peptide P07 LLDLERATRESA (human); experiment: peptide ELISA, alanine replacement panel
T13 peptide: LLDLERATRESA

[15] = biological target: T14, Wnt-11 alanine replacement peptide P06 LLDLEAGTRESA (human); experiment: peptide ELISA, alanine replacement panel
T14 peptide: LLDLEAGTRESA

[16] = biological target: T15, WNT7A peptide GKELKVGSREAAC; experiment: peptide ELISA
T15 peptide: GKELKVGSREAAC

[17] = biological target: T16, WNT9A peptide RASLLKRGFKETAC; experiment: peptide ELISA
T16 peptide: RASLLKRGFKETAC

[18] = biological target: T17, WNT10A peptide YESPIFSRGFRESAC; experiment: peptide ELISA
T17 peptide: YESPIFSRGFRESAC

[19] = biological target: T18, WNT3/3A peptide DSLAIFGPVLDKATRESAC; experiment: peptide ELISA
T18 peptide: DSLAIFGPVLDKATRESAC

[20] = biological target: T19, WNT7B peptide GQELRVGSREAAC; experiment: peptide ELISA
T19 peptide: GQELRVGSREAAC

[21] = biological target: T20, human Wnt-11 (wild-type, untagged) (human, UniProt O96014 25-354); experiment: immunofluorescence of non-permeabilized VCaP (Wnt-11 high) and C4-2B (Wnt-11 low) cells
T20 construct: whole, on cells; also called wild-type Wnt-11
T20 sequence (looked up): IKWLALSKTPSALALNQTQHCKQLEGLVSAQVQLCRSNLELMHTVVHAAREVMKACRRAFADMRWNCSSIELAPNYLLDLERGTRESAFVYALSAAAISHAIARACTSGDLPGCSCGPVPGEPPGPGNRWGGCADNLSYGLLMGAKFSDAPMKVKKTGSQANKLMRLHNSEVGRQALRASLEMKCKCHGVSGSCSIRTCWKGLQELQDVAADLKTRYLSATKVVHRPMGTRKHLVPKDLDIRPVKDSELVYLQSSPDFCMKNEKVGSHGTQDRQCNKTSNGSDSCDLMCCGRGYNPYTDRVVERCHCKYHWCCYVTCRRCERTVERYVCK

[22] = biological target: T2, Wnt-11 peptide LLDLERGTRESAC; experiment: peptide dot blot and peptide ELISA (Fig. 6a, b)
[23] = biological target: T1, Wnt-11 peptide LLDLERGTRESA; experiment: peptide ELISA

Sequence of VSV-G-tagged full-length LRP6 (O75581 other isoform, or with tags, fused parts or gaps limits assumed): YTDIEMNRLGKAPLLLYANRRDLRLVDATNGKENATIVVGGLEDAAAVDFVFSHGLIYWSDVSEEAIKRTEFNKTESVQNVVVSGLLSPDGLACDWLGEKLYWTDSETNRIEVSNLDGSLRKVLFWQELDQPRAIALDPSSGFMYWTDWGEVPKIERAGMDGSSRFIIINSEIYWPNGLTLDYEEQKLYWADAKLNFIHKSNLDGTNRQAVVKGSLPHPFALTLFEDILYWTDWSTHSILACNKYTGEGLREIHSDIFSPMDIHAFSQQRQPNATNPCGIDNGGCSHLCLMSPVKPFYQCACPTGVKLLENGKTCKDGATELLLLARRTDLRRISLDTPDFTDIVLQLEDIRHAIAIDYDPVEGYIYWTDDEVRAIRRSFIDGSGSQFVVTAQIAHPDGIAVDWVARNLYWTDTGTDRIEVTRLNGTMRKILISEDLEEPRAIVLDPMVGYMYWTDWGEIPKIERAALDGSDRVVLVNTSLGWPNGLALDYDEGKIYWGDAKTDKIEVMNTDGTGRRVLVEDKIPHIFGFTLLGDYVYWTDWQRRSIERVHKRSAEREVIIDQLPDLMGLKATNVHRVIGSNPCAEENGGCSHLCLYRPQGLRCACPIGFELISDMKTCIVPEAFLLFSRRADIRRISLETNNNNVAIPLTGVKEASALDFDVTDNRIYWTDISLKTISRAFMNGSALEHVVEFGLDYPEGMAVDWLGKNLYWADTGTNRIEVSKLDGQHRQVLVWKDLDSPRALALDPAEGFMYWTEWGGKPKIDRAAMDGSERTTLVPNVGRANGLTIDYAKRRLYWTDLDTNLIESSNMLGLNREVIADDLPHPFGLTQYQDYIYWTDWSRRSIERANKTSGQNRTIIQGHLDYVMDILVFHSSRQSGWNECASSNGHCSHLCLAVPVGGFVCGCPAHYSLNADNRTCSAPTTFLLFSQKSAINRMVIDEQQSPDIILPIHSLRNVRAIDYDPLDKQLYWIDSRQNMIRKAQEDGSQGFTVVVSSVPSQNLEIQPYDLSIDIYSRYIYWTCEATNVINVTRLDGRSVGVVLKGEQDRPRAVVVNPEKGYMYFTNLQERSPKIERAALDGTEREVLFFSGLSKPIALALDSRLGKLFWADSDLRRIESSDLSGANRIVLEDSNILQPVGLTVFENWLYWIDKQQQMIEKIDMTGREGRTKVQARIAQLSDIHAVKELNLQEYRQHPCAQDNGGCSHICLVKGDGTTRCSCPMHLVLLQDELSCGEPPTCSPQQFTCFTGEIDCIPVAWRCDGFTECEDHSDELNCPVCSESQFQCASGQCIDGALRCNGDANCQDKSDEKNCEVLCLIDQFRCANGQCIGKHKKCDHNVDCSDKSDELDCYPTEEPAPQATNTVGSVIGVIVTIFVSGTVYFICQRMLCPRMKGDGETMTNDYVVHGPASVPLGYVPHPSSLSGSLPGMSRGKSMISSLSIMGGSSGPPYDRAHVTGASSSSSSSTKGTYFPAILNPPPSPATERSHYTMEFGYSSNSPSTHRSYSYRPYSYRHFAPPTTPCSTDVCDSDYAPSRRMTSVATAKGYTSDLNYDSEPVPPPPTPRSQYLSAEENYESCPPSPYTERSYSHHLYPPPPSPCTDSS

B1: Wnt-11 antibody epitope deletion mutant Wnt-11m (Wnt-11 delta 101-108, untagged) (ligand, human, UniProt O96014 25-354, looked up)
chain: IKWLALSKTPSALALNQTQHCKQLEGLVSAQVQLCRSNLELMHTVVHAAREVMKACRRAFADMRWNCSSIELAPNYRESAFVYALSAAAISHAIARACTSGDLPGCSCGPVPGEPPGPGNRWGGCADNLSYGLLMGAKFSDAPMKVKKTGSQANKLMRLHNSEVGRQALRASLEMKCKCHGVSGSCSIRTCWKGLQELQDVAADLKTRYLSATKVVHRPMGTRKHLVPKDLDIRPVKDSELVYLQSSPDFCMKNEKVGSHGTQDRQCNKTSNGSDSCDLMCCGRGYNPYTDRVVERCHCKYHWCCYVTCRRCERTVERYVCK
0.46: colocalization with LRP6, Spearman [1]
0.4: colocalization with LRP6, Pearson [1]

B2: anti-Wnt-11 rat monoclonal antibody Ab2 (F10) (antibody, rat IgG2c, V domains shown)
VH: EVQLVESGGGLVQPGRSLKLSCAASGFTFSNYGMAWVRQAPTKGLEWVASINYDGRNTYYRDSVKGRFTISRDNAKSTVYLQMDSLRSEDTATYYCARPQDGVIDAWGQGDSVTVSS
VL: DVVMTQTPVSLPVSLGGQASISCRSSQSLVHSNGNTYLHWYLQKPGQFPQLLIYRVSNRFSGVPDRFSGSGSGTDFTLKISRVESEDLGVYYCLQGTHLPPTFGGGTKLELK
notes: also called anti-Wnt-11-F10; Wnt-11 antibody F10
binds: binding result [2] | binding result [3]

B3: anti-Wnt-11 rat monoclonal antibody Ab1 (E8) (antibody, rat IgG2a, V domains shown)
VH: EVELVESGGGLVQPGRSLKLSCAASGFTFSDYGMAWVRQTPTKGLEWVASITSGGGNPYYRDSVKGRFTISRDNAKNTQHLQMDSLRSEDTATYYCARHEYYGNYMTCFDYWGQGVMVTVSS
VL: AIVLNQSPSSIVASQGEKVTITCRASLSISSNYLHWYQQKPGAFPKLVIYSTSYRASGVPSRFSGSGSGTSYSFTISRVEAEDVATYYCQQGSSDPLTFGSGTKLEIK
notes: also called anti-Wnt-11-Ab1; Wnt-11 antibody E8
no binding (tested: Ab1 at 30 µg/ml): binding result [4]
binds: binding result [2] | binding result [6] | binding result [9] | binding result [11] | binding result [13] | binding result [14] | binding result [21] | binding result [22]
no binding: binding result [5] | binding result [7] | binding result [8] | binding result [10] | binding result [12] | binding result [15] | binding result [16] | binding result [17] | binding result [18] | binding result [19] | binding result [20]

B4: chimeric anti-Wnt-11 antibody E8h4hk (E8 IgG4k chimeric antibody) (antibody, V domains shown)
VH: EVELVESGGGLVQPGRSLKLSCAASGFTFSDYGMAWVRQTPTKGLEWVASITSGGGNPYYRDSVKGRFTISRDNAKNTQHLQMDSLRSEDTATYYCARHEYYGNYMTCFDYWGQGVMVTVSS
VL: AIVLNQSPSSIVASQGEKVTITCRASLSISSNYLHWYQQKPGAFPKLVIYSTSYRASGVPSRFSGSGSGTSYSFTISRVEAEDVATYYCQQGSSDPLTFGSGTKLEIK
notes: also called chimeric E8 (hIgG4kappa)
binds: binding result [23]

B5: human Wnt-11 (wild-type, untagged) (ligand, UniProt O96014 25-354, looked up)
chain: IKWLALSKTPSALALNQTQHCKQLEGLVSAQVQLCRSNLELMHTVVHAAREVMKACRRAFADMRWNCSSIELAPNYLLDLERGTRESAFVYALSAAAISHAIARACTSGDLPGCSCGPVPGEPPGPGNRWGGCADNLSYGLLMGAKFSDAPMKVKKTGSQANKLMRLHNSEVGRQALRASLEMKCKCHGVSGSCSIRTCWKGLQELQDVAADLKTRYLSATKVVHRPMGTRKHLVPKDLDIRPVKDSELVYLQSSPDFCMKNEKVGSHGTQDRQCNKTSNGSDSCDLMCCGRGYNPYTDRVVERCHCKYHWCCYVTCRRCERTVERYVCK
0.67: colocalization with LRP6, Spearman [1]
0.6: colocalization with LRP6, Pearson [1]
